Measurements as given in patent US20210100901A1 (MAINE MEDICAL CENTER RESEARCH INSTITUTE, published 2021).

Tests used:
integrin αvβ3 [1] = target: T1, integrin αvβ3 (human, UniProt P06756 31-1048; P05106 27-788); experiment: cell-based or functional assay
integrin αvβ3 [2] = target: T1, integrin αvβ3; experiment: HUVEC adhesion to immobilized peptide with function blocking antibodies
Description: RGD peptides (P-1, P-2, P-3, P-4, P-5, and P-C) were immobilized (100 μg/ml) to wells. HUVEC, HMVEC, HRMVEC, and HDF cells were suspended in adhesion buffer (RPMI containing 1 mM MgCl2, 0.2 mM MnCl2 and 0.5% BSA) and 1×10^5 cells were seeded into the wells in the presence or absence of P4C10, LM609, P1F6 or control antibodies (100 μg/ml). Cells were allowed to attach for 25 min at 37° C. Media containing non-attached cells was aspirated and attached cells were washed with PBS and stained with crystal violet. Cell adhesion was quantified by measuring the optical density of eluted dye. Adhesion assays were completed at least three times with triplicate wells.
It is well established that multiple integrins recognize RGD amino acid motifs within ECM proteins. However, the ability of an integrin to bind distinct RGD epitopes depends in part on its orientation within the parent molecule and the C-terminal amino acid sequences flanking the RGD motif (25-27). Potential cell surface receptors that mediate interactions with the RGDKGE (SEQ ID NO. 1) containing collagen P-2 peptide were identified. The ability of endothelial cells to bind the RGD collagen peptides P-1 and P-2 in the presence or absence of function blocking anti-integrin antibodies was examined.

T1 sequence (P06756 31-1048, chain 1 of 2): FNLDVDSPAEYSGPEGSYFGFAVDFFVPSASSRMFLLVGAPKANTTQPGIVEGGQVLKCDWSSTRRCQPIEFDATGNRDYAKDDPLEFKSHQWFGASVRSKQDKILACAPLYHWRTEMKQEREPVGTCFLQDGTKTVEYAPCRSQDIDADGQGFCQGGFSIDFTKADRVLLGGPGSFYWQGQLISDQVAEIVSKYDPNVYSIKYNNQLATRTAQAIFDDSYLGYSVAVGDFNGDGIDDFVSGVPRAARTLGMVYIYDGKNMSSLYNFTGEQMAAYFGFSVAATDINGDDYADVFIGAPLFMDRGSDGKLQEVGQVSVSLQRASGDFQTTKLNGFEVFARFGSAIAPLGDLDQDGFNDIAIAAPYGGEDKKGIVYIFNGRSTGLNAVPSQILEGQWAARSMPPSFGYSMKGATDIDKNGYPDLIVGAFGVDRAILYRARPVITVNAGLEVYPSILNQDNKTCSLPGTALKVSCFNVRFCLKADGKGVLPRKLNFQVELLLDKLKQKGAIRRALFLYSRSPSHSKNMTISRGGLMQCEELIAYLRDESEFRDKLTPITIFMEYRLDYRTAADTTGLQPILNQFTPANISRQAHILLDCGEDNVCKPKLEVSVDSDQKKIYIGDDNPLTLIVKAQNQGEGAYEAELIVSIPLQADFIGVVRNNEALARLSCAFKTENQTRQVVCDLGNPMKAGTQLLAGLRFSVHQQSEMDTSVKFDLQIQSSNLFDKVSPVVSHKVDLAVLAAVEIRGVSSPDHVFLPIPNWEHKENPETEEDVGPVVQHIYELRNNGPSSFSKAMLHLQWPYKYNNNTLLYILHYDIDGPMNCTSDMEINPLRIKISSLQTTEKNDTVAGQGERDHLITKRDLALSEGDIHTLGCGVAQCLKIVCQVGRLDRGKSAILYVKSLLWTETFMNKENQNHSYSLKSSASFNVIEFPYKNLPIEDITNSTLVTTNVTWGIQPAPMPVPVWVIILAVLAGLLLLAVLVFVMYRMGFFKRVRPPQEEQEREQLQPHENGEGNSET
T1 sequence (P05106 27-788, chain 2 of 2): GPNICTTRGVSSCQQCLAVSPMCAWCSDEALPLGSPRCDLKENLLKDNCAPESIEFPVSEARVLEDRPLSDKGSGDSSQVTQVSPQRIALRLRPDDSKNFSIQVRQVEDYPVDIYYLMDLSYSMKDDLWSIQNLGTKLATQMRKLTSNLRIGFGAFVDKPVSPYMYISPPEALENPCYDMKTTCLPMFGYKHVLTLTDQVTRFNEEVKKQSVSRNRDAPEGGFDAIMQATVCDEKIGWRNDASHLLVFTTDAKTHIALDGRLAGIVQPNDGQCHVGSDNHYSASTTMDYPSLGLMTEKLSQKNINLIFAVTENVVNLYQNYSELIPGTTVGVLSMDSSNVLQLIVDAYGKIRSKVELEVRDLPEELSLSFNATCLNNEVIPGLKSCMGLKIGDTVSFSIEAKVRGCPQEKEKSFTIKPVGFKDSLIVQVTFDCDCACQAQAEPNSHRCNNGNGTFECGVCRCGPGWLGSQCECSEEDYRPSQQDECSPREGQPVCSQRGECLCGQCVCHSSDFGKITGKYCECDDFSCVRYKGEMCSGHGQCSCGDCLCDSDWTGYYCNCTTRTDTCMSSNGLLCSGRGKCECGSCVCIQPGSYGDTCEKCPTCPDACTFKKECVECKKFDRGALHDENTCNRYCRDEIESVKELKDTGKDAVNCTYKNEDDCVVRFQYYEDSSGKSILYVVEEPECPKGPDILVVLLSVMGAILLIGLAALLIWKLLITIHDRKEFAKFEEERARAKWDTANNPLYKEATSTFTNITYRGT

Src phosphorylation (Western blot of HUVEC attached to the peptide, serum free) (integrin αvβ3 [1]) | β3-integrin phosphorylation (Western blot of HUVEC attached to the peptide, no growth factors) (integrin αvβ3 [1]) | binding result (integrin αvβ3 [2]) | Binder
~2 fold | > 3 fold | – | CQGPRGDKGEC [Synthetic collagen RGD containing peptide P-2 (CQGPRGDKGEC)]
– | – | binds | CKGDRGDAPGC (2) [Synthetic collagen RGD containing peptide P-1 (CKGDRGDAPGC)]
